Laboratory results as given in PMC3161976, “Transportin 3 Promotes a Nuclear Maturation Step Required for Efficient HIV-1 Integration” (PLoS Pathogens, 2011).

Biological target: RanQ69L-GTP (UniProt P62826 1-216, Q69L)
Experiment: pull-down; GST-Tnp3 or its deletion mutants held on glutathione-Sepharose 4B beads, with RanQ69L-GTP and G2 tRNA, equimolar tRNA and Tnp3; binding buffer 50 mM Hepes pH 7.3, 200 mM NaCl, 2 mM Mg(Ac)2, 10 µM GTP; 4°C; 15% SDS-PAGE and silver staining
Settings: both partners purified

B1: GST-Tnp3 (Transportin 3), full length (natural protein)
chain: MEGAKPTLQLVYQAVQALYHDPDPSGKERASFWLGELQRSVHAWEISDQLLQIRQDVESCYFAAQTMKMKIQTSFYELPTDSHASLRDSLLTHIQNLKDLSPVIVTQLALAIADLALQMPSWKGCVQTLVEKYSNDVTSLPFLLEILTVLPEEVHSRSLRIGANRRTEIIEDLAFYSSTVVSLLMTCVEKAGTDEKMLMKVFRCLGSWFNLGVLDSNFMANNKLLALLFEVLQQDKTSSNLHEAASDCVCSALYAIENVETNLPLAMQLFQGVLTLETAYHMAVAREDLDKVLNYCRIFTELCETFLEKIVCTPGQGLGDLRTLELLLICAGHPQYEVVEISFNFWYRLGEHLYKTNDEVIHGIFKAYIQRLLHALARHCQLEPDHEGVPEETDDFGEFRMRVSDLVKDLIFLIGSMECFAQLYSTLKEGNPPWEVTEAVLFIMAAIAKSVDPENNPTLVEVLEGVVRLPETVHTAVRYTSIELVGEMSEVVDRNPQFLDPVLGYLMKGLCEKPLASAAAKAIHNICSVCRDHMAQHFNGLLEIARSLDSFLLSPEAAVGLLKGTALVLARLPLDKITECLSELCSVQVMALKKLLSQEPSNGISSDPTVFLDRLAVIFRHTNPIVENGQTHPCQKVIQEIWPVLSETLNKHRADNRIVERCCRCLRFAVRCVGKGSAALLQPLVTQMVNVYHVHQHSCFLYLGSILVDEYGMEEGCRQGLLDMLQALCIPTFQLLEQQNGLQNHPDTVDDLFRLATRFIQRSPVTLLRSQVVIPILQWAIASTTLDHRDANCSVMRFLRDLIHTGVANDHEEDFELRKELIGQVMNQLGQQLVSQLLHTCCFCLPPYTLPDVAEVLWEIMQVDRPTFCRWLENSLKGLPKETTVGAVTVTHKQLTDFHKQVTSAEECKQVCWALRDFTRLFR
notes: also called GST-Tnp3 (FL); TRN-SR2; source: E. coli BL21(DE3), purified (glutathione-Sepharose beads, dialysis); not shown: GST, N-terminal, kept
B1: binds.

B2: GST-Tnp3 DC880 deletion mutant (domain or fragment)
chain: MEGAKPTLQLVYQAVQALYHDPDPSGKERASFWLGELQRSVHAWEISDQLLQIRQDVESCYFAAQTMKMKIQTSFYELPTDSHASLRDSLLTHIQNLKDLSPVIVTQLALAIADLALQMPSWKGCVQTLVEKYSNDVTSLPFLLEILTVLPEEVHSRSLRIGANRRTEIIEDLAFYSSTVVSLLMTCVEKAGTDEKMLMKVFRCLGSWFNLGVLDSNFMANNKLLALLFEVLQQDKTSSNLHEAASDCVCSALYAIENVETNLPLAMQLFQGVLTLETAYHMAVAREDLDKVLNYCRIFTELCETFLEKIVCTPGQGLGDLRTLELLLICAGHPQYEVVEISFNFWYRLGEHLYKTNDEVIHGIFKAYIQRLLHALARHCQLEPDHEGVPEETDDFGEFRMRVSDLVKDLIFLIGSMECFAQLYSTLKEGNPPWEVTEAVLFIMAAIAKSVDPENNPTLVEVLEGVVRLPETVHTAVRYTSIELVGEMSEVVDRNPQFLDPVLGYLMKGLCEKPLASAAAKAIHNICSVCRDHMAQHFNGLLEIARSLDSFLLSPEAAVGLLKGTALVLARLPLDKITECLSELCSVQVMALKKLLSQEPSNGISSDPTVFLDRLAVIFRHTNPIVENGQTHPCQKVIQEIWPVLSETLNKHRADNRIVERCCRCLRFAVRCVGKGSAALLQPLVTQMVNVYHVHQHSCFLYLGSILVDEYGMEEGCRQGLLDMLQALCIPTFQLLEQQNGLQNHPDTVDDLFRLATRFIQRSPVTLLRSQVVIPILQWAIASTTLDHRDANCSVMRFLRDLIHTGVANDHEEDFELRKELIGQVMNQLGQQLVSQLLHTCCFCLPPYTLPDVAEVLWEIMQVDRPTFCRWLENSLKGLP
notes: Transportin 3 (Tnp3), human, C-terminal deletion mutant DC880; made by PCR from pGST-TRN-SR2 with the Tnp3 forward primer (from the start ATG) and the DC880 reverse primer, cloned into pGEX-2T; source: E. coli BL21(DE3), purified (glutathione-Sepharose beads, Superdex 200 gel filtration); not shown: GST, N-terminal, kept
B2: binds.

B3: GST-Tnp3 DC825 deletion mutant (domain or fragment)
chain: MEGAKPTLQLVYQAVQALYHDPDPSGKERASFWLGELQRSVHAWEISDQLLQIRQDVESCYFAAQTMKMKIQTSFYELPTDSHASLRDSLLTHIQNLKDLSPVIVTQLALAIADLALQMPSWKGCVQTLVEKYSNDVTSLPFLLEILTVLPEEVHSRSLRIGANRRTEIIEDLAFYSSTVVSLLMTCVEKAGTDEKMLMKVFRCLGSWFNLGVLDSNFMANNKLLALLFEVLQQDKTSSNLHEAASDCVCSALYAIENVETNLPLAMQLFQGVLTLETAYHMAVAREDLDKVLNYCRIFTELCETFLEKIVCTPGQGLGDLRTLELLLICAGHPQYEVVEISFNFWYRLGEHLYKTNDEVIHGIFKAYIQRLLHALARHCQLEPDHEGVPEETDDFGEFRMRVSDLVKDLIFLIGSMECFAQLYSTLKEGNPPWEVTEAVLFIMAAIAKSVDPENNPTLVEVLEGVVRLPETVHTAVRYTSIELVGEMSEVVDRNPQFLDPVLGYLMKGLCEKPLASAAAKAIHNICSVCRDHMAQHFNGLLEIARSLDSFLLSPEAAVGLLKGTALVLARLPLDKITECLSELCSVQVMALKKLLSQEPSNGISSDPTVFLDRLAVIFRHTNPIVENGQTHPCQKVIQEIWPVLSETLNKHRADNRIVERCCRCLRFAVRCVGKGSAALLQPLVTQMVNVYHVHQHSCFLYLGSILVDEYGMEEGCRQGLLDMLQALCIPTFQLLEQQNGLQNHPDTVDDLFRLATRFIQRSPVTLLRSQVVIPILQWAIASTTLDHRDANCSVMRFLRDLIHTGVANDHEEDFELRKELIGQV
notes: Transportin 3 (Tnp3), human, lacking the last C-terminal 98 residues; made by PCR from pGST-TRN-SR2 with the Tnp3 forward primer (from the start ATG) and the DC825 reverse primer, cloned into pGEX-2T; also called ΔC; C-term deleted Tnp3; source: E. coli BL21(DE3), purified (glutathione-Sepharose beads, Superdex 200 gel filtration); not shown: GST, N-terminal, kept
B3: binds.
